Reference: patent publication US5569830

Target: polygalacturonase (endo-PG) from the culture filtrate of Botrytis cinerea DEL 11 (Botrytis cinerea DEL 11)

B1: pear polygalacturonase inhibitor protein (PGIP) purified from Pyrus communis L. cv Bartlett fruit (protein)
chain: DLCNPDDKKVLLQIKKAFGDPYVLASWKSDTDCCDWYCVTCDSTTNRINSLTIFAGQVSGQIPALVGDLPYLETLEFHKQPNLTGPIQPAIAKLKGLKSLRLSWTNLSGSVPDFLSQLKNLTFLDLSFNNLTGAIPSSLSELPNLGALRLDRNKLTGHIPISFGQFIGNVPDLYLSHNQLSGNIPTSFAQMDFTSIDLSRNKLEGDASVIFGLNKTTQIVDLSRNLLEFNLSKVEFPTSLTSVDINHNKIYGSIPVEFTQLNFQFLNVSYNRLCGQIPVGGKLQSFDEYSYFHNRCLCGAPLPSCK
modifications: glycoprotein: N-linked glycans (seven potential N-glycosylation sites; occupied sites not determined)
- release of reducing sugars from sodium polypectate (reducing sugar assay) (times (against the tomato PGIPs)): 20
